We go through 2 molecules from paper PMC9776664, “Crystal structure of the feruloyl esterase from Lentilactobacillus buchneri reveals a novel homodimeric state” (Frontiers in Microbiology, 2022).

One data set deals with T1, LbFAE (Lentilactobacillus buchneri, UniProt D7RU28).
T1 construct: gene faeA; synthetic gene in pNIC28-Bsa4, E. coli BL21(DE3)-T1; Ni-NTA and SEC; homodimer about 60 kDa; monomer model 260 residues; catalytic triad Ser114, Asp206, His233
As to the kind of experiment: X-ray crystal structure, […] Å, wild-type crystal soaked with FA. The class given is binding. Conditions: active site; crystal grown with 0.1 M sodium cacodylate pH 6.5, 0.2 M calcium acetate, PEG 8000.

Substrate in data set [1]: COc1cc(/C=C/C(=O)Oc2ccc([N+](=O)[O-])cc2)ccc1O
As to the kind of experiment: spectrophotometric assay, Michaelis-Menten fit. The format is biochemical, Lentilactobacillus buchneri. Conditions: pH 6.5, 40 °C, free enzyme. From the text:
spectrophotometric assay, Michaelis-Menten fit on LbFAE

Data set [2] concerns the molecule itself. As to the kind of experiment: SEC; HiLoad 16/60 Superdex 200 prep grade, 20 mM Hepes pH 7.5, 150 mM NaCl, 1 ml/min, 4°C; calibrated with ferritin, aldolase, conalbumin, ribonuclease A. On the technique in general: In gel filtration, larger molecules generally elute earlier.
Substrate in data set [3]: COC(=O)/C=C/c1ccc(O)c(OC)c1
As to the kind of experiment: HPLC of released ferulic acid, Michaelis-Menten fit. The class given is biochemical, Lentilactobacillus buchneri. The note with it: pH 6.5, 40 °C, free enzyme. From the text:
HPLC of released ferulic acid, Michaelis-Menten fit on LbFAE

`COc1cc(/C=C/C(=O)O)ccc1O` [FA, 4-hydroxy-3-methoxy-cinnamic acid]: the “X-ray crystal structure, 1.90 Å, wild-type crystal soaked with FA” value at LbFAE is “only FA (i.e., the product) resulted in a complex with LbFAE”.

B1: feruloyl esterase (LbFAE) from Lentilactobacillus buchneri LN 4017, wild type (enzyme, UniProt D7RU28 1-260, looked up)
chain: MIKFVTTEINGLTLRGTAHVPDGEPGQQFPTVLMFHGFGAVRDEGFRLFIQMSNRLMENGIAAVRFDFGCHGESDGEFEDFTFSQELNEGSALIDAVKSMSFVDSTKFSLLGESLGSVAASIVAGKRSTELTSLCMWSPAASFLDEILNDHTLQGKTVDNVEKDGYFDFYGLKLGKAFFDDLKNINIFDNAKKYQGPVKIVYGTNDFIPEKYSHKYMDGYENGELVIVQDGDHGWQSVPSRKRILDETMKFFRKTLLEAK
notes: Feruloyl esterase annotated as type-A FAE (faeA) from L. buchneri silage additive strain LN4017 (ATCC PTA-6138); synthetic gene amplified with primers from the ATG start to the stop codon; the monomer structure includes 260 amino acids; Cloned into pNIC28-Bsa4 by LIC; Theoretical mass with His6 tag and TEV site 31.6 kDa; also called faeA; source: E. coli BL21(DE3)-T1, purified (Ni-NTA, SEC)
On to B1, for which, in data set [1], the Km – broadly, the concentration of substrate that gives half-maximal velocity – came to 900 µM; the Vmax (usually the top rate of the reaction or transport when substrate is in excess) worked out at 6.9 µmol/min/mg; the kcat – broadly, the maximal rate divided by the concentration of active sites – was found to be 6.7 s⁻¹; the kcat/Km – broadly, the turnover number divided by the Michaelis constant – is 7540 M⁻¹ s⁻¹. Moreover, the stoichiometry N (in general, a count of units in the complex or per binding partner) in data set [2] came to 2. For the same molecule, in data set [3], the Km is 65 µM, the Vmax worked out at 6.57 µmol/min/mg, the kcat was 16.3 s⁻¹ and the kcat/Km is 252000 M⁻¹ s⁻¹.
